Measurements: patent publication US11213565B2, “Protein P8 derived from lactic acid bacteria and its use as anti-cancer agent” (CELL BIOTECH CO., LTD., priority 2016, dated 2022)

Experiments:
[1] = system: Colorectal cancer DLD-1 cells; test: Scratch assay, migration of colorectal cancer cells; type: cell-based, human; conditions: 1 μg/ml daily
Description: Colorectal cancer DLD-1 cells were treated daily with 1 μg/ml of the P8 protein of Example 1 for 1, 3 or 7 days, and then dispensed into each well of a 6-well plate.
The dispensed DLD-1 cells were cultured overnight, and then the plate having the cells cultured thereon was scratched with a 200 μl tip. To remove suspended material resulting from the scratch, the plate was washed twice with PBS, and then additionally incubated for 24 hours.

[2] = system: human colorectal cancer cell line (DLD-1) xenograft; test: Colorectal cancer xenograft model, tumor volume; type: in vivo, nude mice
Description: The human colorectal cancer cell line (DLD-1) was transplanted subcutaneously into nude mice, thereby constructing xenograft models. Using the xenograft models, the anticancer activity of the P8 protein of Example 1 was evaluated.
First, for construction of colorectal cancer xenograft models, DLD-1 cells were transplanted subcutaneously into nude mice at a concentration of 1×10^7 cells/100 μl. 10 to 15 Days after the transplantation, the transplanted state of the tumor cells was checked, and mice showing a stable transplanted state were continuously observed. Before tumor's central necrosis occurred, mice showing rapid tumor growth due to supply of sufficient blood were selected, and tumor tissues were collected therefrom. Of the collected tumor tissue, the outer portion in which rapid cell division mainly occurred was cut into a predetermined size (3×3×3 mm), thereby constructing a tumor fragment. Then, the tumor fragment was placed on the tip of a puncture needle (Trocar), and the anterior side of the left rear leg of each animal was incised about 4 mm. The prepared puncture needle was inserted through the incision such that the tip reached the interbody side on the rear side of the left front leg. […] The position of the tumor fragment was determined by touching the skin with hand. […]
During drug administration, the tumor size was measured using Vernier calipers once every two days. […]

[3] = system: NIH3T3 cells (mouse embryonic fibroblast cells); test: Cytotoxicity assay (WST-8) in NIH3T3; type: cell-based; conditions: 0.39 μg/ml to 100 μg/ml, 24 hours
Description: In order to examine whether the P8 protein of Example 1 is cytotoxic, a cytotoxicity assay was performed using the P8 protein, highly expressed in NIH3T3 cells (mouse embryonic fibroblast cells), and BSA (bovine serum albumin) as a […] control.
First, NIH3T3 cells were cultured in a 96-well plate at a density of 1×10^4 cells/well, and each of BSA and the highly expressed and purified P8 protein was added thereto at a concentration of 0.39 μg/ml to 100 μg/ml. Each well was incubated for 24 hours, and then treated with 100 of a cell survival rate measurement kit (Dojindo Cell count kit WST-8), followed by incubation for 2 hours. The absorbance of each well at 450 nm was measured using a microplate reader (Amersham, Biorad, USA, Japan), and based on the measured values, cell survival rates were calculated.

[4] = system: Colorectal cancer DLD-1 cells; test: LIVE/DEAD viability/cytotoxicity staining of DLD-1; type: cell-based, human; conditions: 1 μg/ml or 10 μg/ml, 24 to 48 hours
Description: (§1) Colorectal cancer DLD-1 cells were cultured in a 6-well plate at a density of 1.5×10^6 cells/well, and a P8 protein of the present invention was added thereto at a concentration of 1 μg/ml or 10 μg/ml. Next, the cells were incubated for 24 to 48 hours, and then washed twice with phosphate buffered saline and treated with 1 ml of a LIVE/DEAD viability/cytotoxicity staining kit, followed by incubation for 20 to 40 minutes. By the staining, living cells were stained green, and dead cells were stained red. The cells were observed under a fluorescent microscope, and the degree of inhibition of viability thereof was analyzed.
as §1, with “and the” for “and a”, “of Example 1” for “of the present invention”, “μg/ml. Each well was” for “μg/ml. Next, the cells were”, “staining, live” for “staining, living”

[5] = system: HT-29 cell line; test: Cell survival rate (WST-8) in HT-29; type: cell-based; conditions: 0.39 μl/ml to 100 μl/ml, 24 hours
Description: (§2) Each of the colorectal cancer cell line DLD-1 and the HT-29 cell line was cultured in a 96-well plate at a density of 1×10^4 cells/well, and the P8 protein of Example 1 was added thereto at a concentration of 0.39 μl/ml to 100 μl/ml. As a negative control, 0.1% PBS buffer used in protein purification was used. The cells were incubated for 24 hours, and then each well was treated with 100 of a cell survival rate measurement kit (Dojindo Cell count kit WST-8) and incubated for 2 hours. The absorbance of each well at 450 nm was measured using a microplate reader (Amersham, Biorad, USA, Japan), and based on the measured values, cell survival rates were calculated.

[6] = system: colorectal cancer cell line DLD-1; test: Cell survival rate (WST-8) in DLD-1; type: cell-based, human; conditions: 0.39 μl/ml to 100 μl/ml, 24 hours
Description: Colorectal cancer DLD-1 cells were cultured in a 96-well plate at a density of 1×10^4 cells/well, and each of active sites 1 to 3 (SEQ ID NOs: 8 to 10) of Example 1-3 was added thereto at a concentration of 10 μg/ml. As a negative control, 0.1% PBS buffer used in protein purification was used. The cells were incubated for 24 hours, and then each well was treated with 100 of a cell survival rate measurement kit (Dojindo Cell count kit WST-8) and incubated for 2 hours. The absorbance of each well at 450 nm was measured using a microplate reader (Amersham, Biorad, USA, Japan), and based on the measured values, cell survival rates were calculated.
as §2

B1: P8 protein: 8 KDa protein fragment extracted from Lactobacillus rhamnosus, amino acid sequence SEQ ID NO: 2 (protein, listed as Lactobacillus rhamnosus)
chain: MATVDPEKTLFLDEPMNKVFDWSNSEAPVRDALWDYYMEKNSRDTIKTEEEMKPVLDMSDDEVKALAEKVLKK
- decrease of migration rate of the cells compared to untreated control ([1]; 1-day treatment): 15.7%
- decrease of migration rate of the cells compared to untreated control ([1]; 3-day treatment): 45.9%
- decrease of migration rate of the cells compared to untreated control ([1]; 7-day treatment): 58.3%
- cancer growth inhibitory effects compared to conventional anticancer agents ([2]; 10 mg/Kg or higher, intraperitoneally twice a week for 4 weeks, vs 5-fluorouracil 10 mg/Kg, oxaliplatin 4 mg/Kg): superior
- cancer growth compared to negative control group ([2]; 1, 5 and 10 mg/Kg intraperitoneally twice a week for 4 weeks): significantly inhibited
- cytotoxicity (cell survival rate compared with BSA) [3]: not cytotoxic
- dependence of viability on concentration or time of treatment [4]: decreased as the concentration or time of treatment with the P8 protein increased
- viability of the cells compared to negative control ([4]; fluorescent microscope): decreased
- cell growth inhibitory effect [5]: about 20%
- cell growth inhibitory effect [6]: about 20%
